Measurements taken from patent US20190127452A1.

Key:
Experiment in all cases: cell-based or functional assay
[1] = molecular target: murine glutamine synthetase N-terminal mutant W60A N61A D63A (mutGS-NT1) (murine) (UniProt P15105)
[2] = molecular target: murine glutamine synthetase N-terminal mutant W60A N61A D63A S66A (mutGS-NT2) (murine) (UniProt P15105)
[3] = molecular target: murine glutamine synthetase N-terminal mutant W60A N61A D63R S66A (mutGS-NT4) (murine) (UniProt P15105)
[4] = molecular target: murine glutamine synthetase N-terminal mutant W60A N61A D63A S66A D76A (mutGS-NT3) (murine) (UniProt P15105)

Measured: recovery of viability of CHO-K1 GS knockout pools in glutamine-free medium

murine glutamine synthetase C-terminal mutant N248A H253A N255A (mutGS-CT2) (from UniProt P15105 1-373)
90 % viability: all assays above

murine glutamine synthetase C-terminal mutant E134A E136A E196A E203A (mutGS-CT1) (from UniProt P15105 1-373)
90 % viability: all assays above
